Laboratory results: patent publication US20100233154A1, “TARGETED BINDING AGENTS DIRECTED TO HEPARANASE AND USES THEREOF 463” (MedImmune Limited, priority 2008, published 2010)

Experiments:
human heparanase = target: T1, human heparanase (Homo sapiens, UniProt Q9Y251); assay: Cross species capture ELISA, human heparanase; type: binding
T1 sequence (Q9Y251 36-543): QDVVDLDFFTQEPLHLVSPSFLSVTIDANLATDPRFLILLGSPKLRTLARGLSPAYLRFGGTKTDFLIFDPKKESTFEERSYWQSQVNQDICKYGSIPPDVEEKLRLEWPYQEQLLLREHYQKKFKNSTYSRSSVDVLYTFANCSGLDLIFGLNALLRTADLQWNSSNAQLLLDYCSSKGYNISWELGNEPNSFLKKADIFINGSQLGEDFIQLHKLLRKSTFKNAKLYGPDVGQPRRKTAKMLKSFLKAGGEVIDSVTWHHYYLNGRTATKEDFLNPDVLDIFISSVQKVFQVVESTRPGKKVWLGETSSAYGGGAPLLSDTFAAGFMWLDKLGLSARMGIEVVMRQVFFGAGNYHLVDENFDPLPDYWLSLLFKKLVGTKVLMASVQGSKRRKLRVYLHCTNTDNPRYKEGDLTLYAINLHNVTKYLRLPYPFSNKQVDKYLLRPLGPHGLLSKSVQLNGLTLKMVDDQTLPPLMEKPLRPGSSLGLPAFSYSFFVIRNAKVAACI
Protocol: (§1) Initially, cross species binding to human, murine and cynomolgus heparanase was determined in an ELISA assay in which heparanase was captured onto plates using a rabbit anti-heparanase antibody (Raybiotech, Cat. IP-14-155). Exhaustive supernatants were added to the plates at a final dilution of 1:5 and bound antibody detected with a rabbit anti-human IgG Fc.

cynomolgus heparanase = assay: Cross species capture ELISA, cynomolgus heparanase; type: binding; conditions: min 0.06, max 1.5 OD units
Protocol: as §1

[1] = test system: precursor (65 kDa) and active (50 kDa) heparanase; assay: Immunoprecipitation and Western blotting of heparanase from cell lysates; type: binding, human; conditions: 10 μg antibody, 400 μg lysate, MCF7 and MDA MB231 parental and heparanase transfected cells
Protocol: Briefly, protein lysates (400 μg in RIPA lysis buffer—137 mM NaCl, 20 mM Tris pH7.4, 10% glycerol, 1% Triton, 0.5% Sodium deoxycholate, 0.1% SDS, 2 mM EDTA, 1 mM dithiothreitol, 4 mM pefabloc, 10 mM glycerol-2-phosphate, 5 mM NaF and protease inhibitor cocktail) from both parental and heparanase transfected cells were incubated with 10 μg IgG2 control or anti-heparanase (10E9.1) antibodies for 1 hour at 4° C. Following immunoprecipitation with protein G agarose beads and washing with RIPA buffer, samples were separated on 10% bis-tris gels and transferred to nitrocellulose for Western blotting. Heparanase was detected using an anti-heparanase polyclonal antibody (Biochain Cat. No. Z5010104), that recognises both precursor and active heparanase.

MDA MB231-Hpa1#4 cells = assay: Heparanase expression in cells cultured with antibody (Western blot); type: cell-based, human; conditions: 25 μg per ml antibody, 72 hrs, compared to untreated or IgG2 control
Protocol: MDA MB231-Hpa1#4 cells were cultured in the presence of 25 μg per ml anti-human heparanase antibody or control IgG2 antibody (Sigma Cat. No. 1504-1MG) for 72 hrs. Following the removal of culture medium, protein extracts were prepared from the cells in 100 μl RIPA buffer and separated on […] gels and transferred to nitrocellulose as described above. Western blots were probed with an anti-heparanase antibody that detected only pro-heparanase (SantaCruz Cat. No. SC25825).

MCF7-Hpa1#19 cells = assay: Accumulation of precursor heparanase in conditioned medium and cell lysates (Western blot); type: cell-based, human; conditions: 25 μg per ml, 24 hrs
Protocol: MCF7-Hpa1#19 cells were cultured until confluent and then grown overnight (˜12 hrs) at 37° C. in serum free medium. Following overnight incubation, culture medium was replaced with serum free medium containing 25 μg per ml anti-heparanase monoclonal antibody 10E9.1 or a control IgG2 antibody (Sigma Cat. No. 1504-1MG) and incubated for a further 24 hrs at 37° C. Cell cultures were then treated for 2 hrs with PMA 0.1-10 μM, to stimulate heparanase expression (Sasaki N et al, J Immunol. 172: 3830, 2004). Conditioned medium from the cultures was harvested and concentrated 10-fold and protein lysates in RIPA buffer were prepared from the cells. Proteins from conditioned medium or cell lysates were separated on […] gels as described previously and heparanase was detected using an anti-heparanase polyclonal antibody (Biochain Cat. No. Z5010104).

[2] = test system: HT1080 human fibrosarcoma cells; assay: FACS binding to cell surface heparanase, HT1080; type: cell-based; conditions: 5 or 10 μg per ml, 2 hrs at 37° C.
Protocol: (§2) Although heparanase is found as a secreted protein, a proportion of heparanase is found in conjunction with cell surface heparan sulfate. The ability of anti-human heparanase antibodies to bind to cell surface heparanase was tested in a FACS assay. HT1080 human fibrosarcoma cells, HCT116 human colorectal tumour cells and B16F10 AP3 murine melanoma cells were each seeded into 6-well plates and cultured for 48 hrs prior to the addition of anti-heparanase antibody 10E9.1 or control IgG2 antibody (Sigma Cat. No. 1504-1MG). Antibodies were added to the cells to a final concentration of 5 or 10 μg per ml and incubated with the cells for 2 hrs at 37° C. The cells were then washed with phosphate buffered saline (PBS) and harvested by incubation with trypsin. The cells were pelleted by centrifugation and resuspended in 0.5 ml PBS, 0.1% BSA containing 1/200 dilution of AlexaFluor 488 anti-human IgG. The cells were incubated for 1 hr at room temperature, washed with PBS/BSA, resuspended in PBS and analysed by FACS. […] The differences likely reflect a lower affinity for murine heparanase in addition to any differences in absolute heparanase expression.

[3] = test system: B16F10 AP3 murine melanoma cells; assay: FACS binding to cell surface heparanase, B16F10 AP3; type: cell-based; conditions: 5 or 10 μg per ml, 2 hrs at 37° C.
Protocol: as §2

MCF7-Hpa1#19 xenograft = assay: Subcutaneous xenograft tumour growth, MCF7-Hpa1#19; type: in vivo, SCID mice; conditions: once weekly i.p.; 10E9.1 at 7.5 or 15 mg per kg
Protocol: MCF7-Hpa1#19 and HCT116 tumour cells were harvested from sub-confluent cultures. A total of 5×10^6 (MCF7-Hpa1#19) or 10^7 (HCT116) tumour cells were inoculated subcutaneously into the flank of male SCID mice. HCT116 tumour cells were implanted in PBS; […] cells were implanted in PBS containing 50% matrigel.
When tumours had attained ˜200 mm^3, tumour bearing mice were randomised into treatment groups and dosed with the following; PBS; an isotype matched control IgG2 antibody, 15 mg per kg; anti-heparanase antibody 10E9.1, 7.5 or 15 mg per kg. All treatments were administered once weekly i.p. Tumour growth was measured twice per week using calipers and tumour volumes calculated according to an ellipsoid volume is formula (3.142/6×length×width×width) from measures of the largest tumour diameter and two opposing widths (FIG. 11).

Binding to heparanase Human (human heparanase): 0.63 OD units
Binding to heparanase Cyno (cynomolgus heparanase): 1.4 OD units
B1: 10E9.1: fully human anti-heparanase monoclonal antibody, G2κ; VH SEQ ID NO 2, VL SEQ ID NO 4; ATCC PTA-9489 (antibody, listed as Homo Sapiens, V domains shown)
VH: QVQLVQSGAEVKKPGASVKVSCKVSGYSLTELSIHWVRQAPGKGLEWMGGFDPEDGEIIFAQKFQGRVTLTEDISLDTAYMEVSSLRSEDTAVYYCATEGHDSGDYVGYYYYGLDVWGQGTTVTVSS
VL: DIQMTQSPSSLSASVGDRVTITCRASQDIRNFLAWYQQKPGKLPKLLIYAASTLQSGVPSRFSGSGSGTDFTLTISSLQPEDVASYYCQSHNSVPFTFGPGTKVDIR
notes: fully human anti-heparanase monoclonal antibody, G2κ; ATCC PTA-9489
Immunoprecipitation of heparanase from cell lysates [1]: immunoprecipitation of both precursor and active forms of heparanase
Inhibition of heparanase expression (MDA MB231-Hpa1#4 cells): significant inhibition of heparanase expression
Accumulation of precursor (65 kDa) heparanase in the culture medium (MCF7-Hpa1#19 cells; compared to control IgG2): accumulation of precursor (65 kDa) heparanase in the culture medium
PMA-stimulated increase in intracellular heparanase (MCF7-Hpa1#19 cells; then PMA 0.1-10 μM 2 hrs): appeared to be attenuated
Binding to cells by FACS [2]: bind extensively
Binding to cell surface by FACS [3]: bind to the cell surface of B16F10 AP3 murine melanoma cells
Tumour growth inhibition (MCF7-Hpa1#19 xenograft): not inhibited
